Test results published in patent US20200399385A1 (Bristol-Myers Squibb, published 2020).

Assays:
[1] = target: T1, human OX40 on cells (human, UniProt P43489 29-277); experiment: cell-based or functional assay
T1 sequence: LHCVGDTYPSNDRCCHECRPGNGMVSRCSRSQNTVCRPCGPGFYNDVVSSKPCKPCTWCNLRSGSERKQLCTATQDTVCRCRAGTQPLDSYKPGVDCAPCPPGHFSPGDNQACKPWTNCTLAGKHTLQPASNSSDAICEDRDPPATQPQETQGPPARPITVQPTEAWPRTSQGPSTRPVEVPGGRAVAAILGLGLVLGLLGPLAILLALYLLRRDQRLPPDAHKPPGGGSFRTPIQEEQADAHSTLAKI

[2] = target: T2, his-tagged soluble human OX40 (huOX40-6xhis) (human, UniProt P43489 29-214); experiment: SPR, mAb captured on anti-human CH1, OX40-6XHIS analyte, 1:1 fit
T2 construct: made in-house; also called Human-OX40-6XHIS; hOX40; not shown: hexahistidine tag
T2 sequence: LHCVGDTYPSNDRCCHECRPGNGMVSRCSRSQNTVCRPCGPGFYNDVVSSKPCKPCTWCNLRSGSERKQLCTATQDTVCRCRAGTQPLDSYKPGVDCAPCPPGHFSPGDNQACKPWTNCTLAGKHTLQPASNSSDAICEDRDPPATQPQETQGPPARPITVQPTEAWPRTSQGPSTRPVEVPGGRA
Protocol: The affinity of several OX40 antibodies for soluble human OX40 was tested by SPR analysis. […] Human-OX40-6XHIS antigen in either a single concentration of 400 nM or a 1:2 serial dilution from 400 nM was used. Experiments were carried out on BIACORE® T200 or BIACORE® 3000 SPR instruments. Data was fit to a 1:1 model.

[3] = target: T1, human OX40 on cells; experiment: FACS competition on HT1080-hOX40 cells against APC-OX40.1 (FL2 MFI); the table gives no unit, axis 'Ab conc nM'
Protocol: (§1) This experiment was performed to test the cross-blocking properties of various anti-OX40 antibodies to assess binding specificities. […] Cells were washed and if necessary further incubated in the presence of streptavidin-APC conjugate under the same conditions. After the final wash, cells were analyzed on a FACSCanto flow cytometer (BD Bioscience, San Jose, Calif.). Mean fluorescence intensity (MFI) signal was proportional to bound conjugated antibody.

[4] = target: T1, human OX40 on cells; experiment: FACS, blocking of OX40L-His (0.2 µg/mL) binding to hOX40-293 cells
Protocol: Briefly, 293 cells stably transfected with human OX40 were first pre-incubated with varying concentrations of anti-OX40 antibodies. […] The fluorescence intensity of the staining was measured using a FACSCanto II flow cytometer (Becton Dickinson).

[5] = target: T3, cynomolgus OX40 on cells (cynomolgus, UniProt P43489 29-277 (human entry)); experiment: FACS, activated cyno T cells; mean ± SD, n=4
T3 construct: also called cynoOX40-CHO
T3 chain: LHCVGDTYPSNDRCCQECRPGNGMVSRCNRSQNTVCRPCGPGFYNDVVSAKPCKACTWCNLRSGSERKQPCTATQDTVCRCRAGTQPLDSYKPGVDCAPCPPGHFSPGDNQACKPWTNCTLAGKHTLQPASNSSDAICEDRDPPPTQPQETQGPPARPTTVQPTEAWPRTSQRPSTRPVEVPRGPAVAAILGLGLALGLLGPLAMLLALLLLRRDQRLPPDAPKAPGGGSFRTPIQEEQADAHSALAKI
Protocol: (§2) Briefly, cells were activated for several days before the binding assay in order to induce OX40 expression. Total leukocytes were isolated from cynomolgus macaque peripheral blood by lysis of red blood cells using an ammonium chloride buffer. The leukocytes were then cultured for four to five days with in flasks pre-coated with anti-human CD3 plus anti-human CD28 antibodies that cross-react with cynomolgus macaque, in the presence of recombinant human IL-2, in order to expand and activate T cells. On the day of the assay, the cells were harvested and stained with a titration of each anti-OX40 antibody. Bound antibodies were detected with a fluorescently conjugated anti-human IgG polyclonal secondary antibody, and the cells were co-stained for CD4 and CD25 to detect activated CD4 T cells. The fluorescence intensity of the staining was measured using a FACSCanto II flow cytometer (Becton Dickinson). The geometric mean fluorescence intensity (GMFI) or median fluorescence intensity (MedFI) of anti-OX40 antibody staining was calculated for the CD4+CD25+ population (FACSDiva software). Dose-response curves were generated and EC50s for antibody binding were calculated using GraphPad Prism software.

[6] = target: T1, human OX40 on cells; experiment: FACS, activated human T cells; mean ± SD, n=2
Protocol: (§3) Cells were activated for several days before the binding assay in order to induce OX40 expression. Briefly, PBMCs were cultured for three or four days with magnetic beads coated with anti-human CD3 plus anti-human CD28, in the presence of recombinant human IL-2. On the day of the assay, the beads were removed and the cells stained with a titration of each anti-OX40 antibody. Bound antibodies were detected with a fluorescently conjugated anti-human IgG polyclonal secondary antibody, and the cells were co-stained for CD4 and CD25 to detect activated CD4 T cells. The fluorescence intensity of the staining was measured using a FACSCanto II flow cytometer (Becton Dickinson). The geometric mean fluorescence intensity (GMFI) or median fluorescence intensity (MedFI) of anti-OX40 antibody staining was calculated for the CD4+CD25+ population (FACSDiva software). EC₅₀s for antibody binding were calculated using GraphPad Prism software.

[7] = target: T1, human OX40 on cells; experiment: FACS, activated human T cells; mean ± SD, n=3
Protocol: as §3

[8] = target: T1, human OX40 on cells; experiment: FACS competition on hOX40-293 cells against biotin-OX40.5 (spike biotOX.5 @ 0.4 ug/mL, streptavidin-APC); FL4-MFI falls from about 8700 to about 4100; the table gives no unit, axis in nM
Protocol: as §1

[9] = target: T1, human OX40 on cells; experiment: cell-based or functional assay; remark: listed apart in the source
[10] = target: T3, cynomolgus OX40 on cells; experiment: FACS, activated cyno T cells; mean ± SD, n=3
Protocol: as §2

[11] = target: T3, cynomolgus OX40 on cells; experiment: FACS, activated primary cynomolgus macaque CD4+/CD25+ T cells, purified recombinant antibody, fluorescent anti-human IgG secondary (APC GMFI)
Protocol: as §2
The same experiment was performed with anti-OX40 antibodies with variable region substitutions.

[12] = target: T1, human OX40 on cells; experiment: FACS, activated primary human CD4+/CD25+ T cells, purified recombinant antibody, fluorescent anti-human IgG secondary (APC GMFI)
Protocol: as §3

[13] = target: T1, human OX40 on cells; experiment: FACS competition on HT1080-hOX40 cells against APC-OX40.1 (FL2 MFI); the table gives no unit, axis 'Ab conc nM'; NOTE: the curve of this antibody is flat at about 18000 (no inhibition), the printed fit value has no meaning as a potency
Protocol: as §1

Binder	Proliferation EC50, CD4 T cells + CHO-CD3-CD32A [1] [nM]	Kd [2] [nM]	koff [2] [s⁻¹]	kon [2] [M⁻¹ s⁻¹]	EC50 [4] [nM]	EC50 [5] [nM]	EC50 [6] [nM]	EC50 [7] [nM]	IL-2 EC50, SEB PBMC, donor BMS-001 [9] [nM]	IL-2 EC50, SEB PBMC, donor BMS-004 [9] [nM]	IL-2 EC50, SEB PBMC, donor BMS-009 [9] [nM]	IL-2 EC50, SEB PBMC, donor BMS-012 [9] [nM]	IL-2 EC50, SEB PBMC, donor BMS-015 [9] [nM]	IL-2 EC50, SEB PBMC, donor BMS-016 [9] [nM]	IL-2 EC50, SEB PBMC, donor WB10024 [9] [nM]	IL-2 EC50, SEB PBMC, donor WB10025 [9] [nM]	IL-2 EC50, SEB PBMC, donor WB10026 [9] [nM]	IL-2 EC50, SEB PBMC, donor WB10027 [9] [nM]	IL-2 EC50, SEB PBMC, donor WB10137 [9] [nM]	IL-2 Mean EC50, SEB PBMC, all donors [9] [nM]	further results
8B11 (antibody, V domains shown, also called 8B11.H9.C1; 8B11.H9) VH: EIQLVQSGGGLVHPGGSLRLSCAGSGFTFSSDAMYWVRQAPGKGLEWVSAIGIGGDTYYTDSVMGRFTISRDNAKNSLYLQMNSLRAEDMAVYYCARLGMGYYFDYWGQGTLVTVSS VL: not shown	0.022	10.5	0.00051	48000	0.45	0.2	0.14														IC50 [3]: 1.41 nM
23H3 (antibody, V domains shown, also called 23H3.C6) VH: EVQLVQSGGGLVHPGGSLRLSCAGSGFTFSNYAMYWVRQAPGKGLEWVSAIGIGGDTFYTDSVKGRFTISRDNAKNSLSLQMNSLRAEDMAVYYCARMGTGYFFDYWGQGTLVTVSS VL: EIVLTQSPATLSLSPGERATLSCRASQSVSSYLAWYQQKPGQAPRLLIYDASNRATGIPARFSGSGSGTDFTLTISSLEPEDFAVYYCQQRSNWPLTFGPGTKVDIK	0.028	3.6	0.000395	110000	0.38	0.18		0.15													EC50 [8]: 3.68 nM
OX40.18 (antibody, human IgG1, kappa, V domains shown, g1f) VH: QVQLVQSGAEVKKPGASVKVSCKASGYTFTSYDVNWVRQATGQGLEWMGWMNPNSGNTGYAPKFQGRVTMTRDTSISTAYMELSSLRSEDTAVYYCARIYSSSYNWFDYWGQGTLVTVSS VL: EIVLTQSPATLSLSPGERATLSCRASQSVSSYLAWYQQKPGQAPRLLIYDASNRATGIPARFSGSGSGTDFTLTISSLEPEDFAVYYCQQRSNWPLTFGGGTKVEIKR	0.23						3.15		~84.8	2.43	3.21	~1.67	> 100	> 100	~3.17	~1.14	3.02	~3.27	> 100	2.89	IFNγ EC50, CD4 T cells + CHO-CD3-CD32A [1]: 0.49 nM
OX40.17 (antibody, human IgG1, kappa, V domains shown) VH: EVQLVESGGGLVQPGGSLRLSCAASGFTFSSYDMHWVRQTTGKGLEWVSVIGTAGDTYYPGSVKGRFTISRENAKNSLYLQMNSLRAGDTAVYYCARGGMGNYFDYWGQGTLVTVSS VL: EIVLTQSPATLSLSPGERATLSCRASQSVSSYLAWYQQKPGQAPRLLIYDASNRATGIPARFSGSGSGTDFTLTISSLEPEDFAVYYCQQRSNWPLTFGGGTKVEIKR	0.009							0.26	0.41	1.03	0.97	1.74	1.16	1.4	1.06	1.35	1.68	1.15	0.92	1.17	IFNγ EC50, CD4 T cells + CHO-CD3-CD32A [1]: 0.044 nM; EC50 [10]: 0.52 nM; EC50 (read off the curve) [11]: ~0.4 nM; EC50 (read off the curve) [12]: ~0.2 nM
6E1 (antibody, V domains shown, also called 6E1.A12.A2; 6E1.A12) VH: QVQLVESGGGVVQPGRSLRLSCAASGFTFSSFAMHWVRQAPGKGLEWVTVISYDGSIKYYTDSVKGRFTFSRDNSKNTLYLQMNSLRAEDTAVYYCTRDGNYGSARYFQHWGQGTLVTVSS VL: EIVLTQSPATLSLSPGERATLSCRASQSVSSYLAWYQQKPGQAPRLLIYDASNRATGIPARFSGSGSGTDFTLTISSLEPEDFAVYYCQQRSNWPYTFGQGTKLEIK	0.014	11	0.00141	128000		0.77	0.97														IC50 [13]: ~0.00249 nM
